This is an account of results in patent US20110311550A1 (Scripps Research, published 2011).

In experiment [1] the target is T1, HCV E1E2 complex, isolate H77 (genotype 1a) (hepatitis C virus genotype 1a, isolate …, UniProt P27958 192-383; P27958 384-746). In words: Fab screen after panning on E1E2 (H77).
Experiment [2] has as its target T1, HCV E1E2 complex, isolate H77 (genotype …). In words: Fab ELISA on unmasked E1E2. On the technique in general: An ELISA detects its analyte on a solid surface through an enzyme-linked reagent.
Experiment [3] concerns the target E1E2 (Env) of HCV isolate H (genotype 1a) on HCVpp (hepatitis C virus, isolate H). In words: cell-based or functional assay.
The target in experiment [4] is E1E2 (Env) of HCV isolate OH8 (genotype 1b) on HCVpp (hepatitis C virus, isolate OH8). Briefly: cell-based or functional assay.
Experiment [5] addresses E1E2 (Env) of HCV isolate UKN1B12.16 (genotype 1b) on HCVpp (hepatitis C virus, isolate UKN1B12.16). Briefly: cell-based or functional assay.
For experiment [6], the target named is E1E2 (Env) of HCV isolate J6 (genotype 2a) on HCVpp (hepatitis C virus, isolate J6, UniProt P26660 192-383; P26660 384-750). Briefly: cell-based or functional assay.
For experiment [7], the target named is E1E2 (Env) of HCV isolate UKN2A1.2 (genotype 2a) on HCVpp (hepatitis C virus, isolate UKN2A1.2). In words: cell-based or functional assay.
The target in experiment [8] is E1E2 (Env) of HCV isolate UKN2B1.1 (genotype 2b) on HCVpp (hepatitis C virus, isolate UKN2B1.1). In words: cell-based or functional assay.
Experiment [9] deals with E1E2 (Env) of HCV isolate UKN4.21.16 (genotype 4) on HCVpp (hepatitis C virus, isolate UKN4.21.16). In words: cell-based or functional assay.
The target in experiment [10] is E1E2 (Env) of HCV isolate UKN5.15.7 (genotype 5) on HCVpp (hepatitis C virus, isolate UKN5.15.7). Briefly: cell-based or functional assay.
Experiment [11] addresses VSV (control pseudotype virus envelope). In words: cell-based or functional assay.

Numbering of substitutions follows the chain as printed. Some results are limits rather than exact numbers.

B1: Fab E2 (antibody clone, not the glycoprotein) (Fab, V domains shown)
VH: VGLLEQSGAELKKPGSSVKVSCKPSDGTFRAYTLSWVRQAPGQTLEWLGRIMPTVGITNYAQKFQGRVTISADMSTATAYMQLSSLRPDDTAIYYCAKGPYVGLGEGFSEWGQGTLVTVSS
VL: ELTQSPLSLPVTLGQPASISCRSSQSLVYSDGNTYLIWFQQRPGQSPRRLIYNVSNRDSGVPDRFSGSGSGTDFTLKISRVEAEDLGVYYCMQGAHWPPTFGQGTRLEIKG
In the case of B1, the binding result in [1] is on record as “binds”.

B2: Fab E3 (Fab, V domains shown)
VH: B1 VH with T44A, L48M, Q62R, Q82E, P88S
VL: ELVLTQSPLSLPVTLGQPASISCRSTQSLVYSDGNTYLNWFHQRPGQPPRRLIYKVSNRDSGVPERFSGSGSGTDFALKISRVEADDVGIYYCMQGAHWPPTFGGGTKVEISR
For the molecule B2, the binding result in [1] is given as “binds”.

B3: Fab N3 (Fab, V domains shown)
VH: VQLLEQSGAEVKKPGDSLRISCKMSGDSLVWIGWVRQKPGQGLEWMGIINPGDSATNIYPGDSDTRYGPSFQGQVTISIDKSTSTAYLQWNAVKASDTGIYYCARHVPVPISGTFLWREREMHDLGYFDDWGQGTLVIVSS
VL: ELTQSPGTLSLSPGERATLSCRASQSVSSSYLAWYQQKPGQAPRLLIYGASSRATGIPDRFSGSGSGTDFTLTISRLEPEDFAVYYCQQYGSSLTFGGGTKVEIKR
notes: Soluble Fab
On to B3, for which, in [2], the binding result is recorded as “binds”.

B4: Fab U2 (Fab, V domains shown)
VH: VQLLEQSGAEVKRPGSSVKLSCKNSGGTFITQAMSWVRQAPGQGLEWMGGIIPVFGTVNYAQNILDRATATADEDTFSLELRGLRLEDTAVYYCAREVNLKTWNLARPDVFDIWGPGTLVTVSS
VL: ELTQSPSSLSASIGDRVTIPCRASQSILNHLNWYQQKPGQPPKLLIFAASNLQSGVPSRFSGSGSGTDFTLTISSLQTEDFATYYCQQSYSTPRTFGQGTKVEVKR
Consider B4, for which the binding result in experiment [1] was “binds”.

B5: Fab L5 (Fab, V domains shown)
VH: VQLLEQSGTEVKKPGSSVKVSCKVPGDTFRSYVITWVRQAPGQGLEWLGGILPFFGTTNLAQKFQGRVTLTADESTTTAYMELSSLRAEDTAVYYCAKAGDLAFGGVIAGGVPHLSHFDPWGQGTLVTVSS
VL: ELTQSPGTLSLSPGERATLSCRASQSVRSNYLAWYQQKPGQAPRLLIYGASSRATGIPDRFSGSGSGTDFTLTISRLEPEDFAMYYCQQYGSSMCSFGQGTKVEIKR
With B5, the binding result in [1] was “binds”.

B6: Fab L6 (Fab, V domains shown)
VH: B5 VH with A40S, A88S, S131A
VL: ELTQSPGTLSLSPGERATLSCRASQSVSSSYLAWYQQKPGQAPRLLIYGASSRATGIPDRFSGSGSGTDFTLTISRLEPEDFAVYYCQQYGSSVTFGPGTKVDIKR
Regarding B6, in experiment [1], the binding result is “binds”.

B7: Fab P3 (Fab, V domains shown)
VH: EVQLLESGGGVVQPGKSLRLSCAVSGFTLNTFAMHWVRQVPGKGLEWVALTSHDGSRQDYADSVRGRFTISRDNSKSMVFLLMNSLRAEDTAVYYCVRGGPAYYTYNDVLTGYAYVVGDFWGQGTLVTVSS
VL: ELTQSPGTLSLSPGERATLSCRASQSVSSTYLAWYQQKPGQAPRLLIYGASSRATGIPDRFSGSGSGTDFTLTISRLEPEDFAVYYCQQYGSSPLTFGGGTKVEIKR
On to B7, for which the binding result in [2] is on record as “binds”.

B8: MAb AR3B (antibody, V domains shown)
VH: LEQSGPEVKKPGSSVKVSCKDSGDTFNEPVTWVRQAPGQGLEWIGGIIPAFGVTKYAQKFQGRVIISADASTATAYLELSSLRSEDTAVYYCAKVGLRGIVMVGGLAMNWLDPWGQGTQVTVSS
VL: not shown
With B8, the “Neutralizing activity (IC50) on HCVpp” value came to 1 µg/mL in experiment [3]; 5 µg/mL in experiment [4]; 1 µg/mL in [5]; 10 µg/mL in experiment [6]; 5 µg/mL in experiment [7]; 10 µg/mL in [8]. In addition, the “Neutralizing activity (IC50) on HCVpp” value in [9] and in [10] was 1 µg/mL in each case. In [11], the “Neutralizing activity (IC50) on control pseudotype virus” value was over 50 µg/mL.

B9: Fab P1 (Fab, V domains shown)
VH: EVQLLESGGGVVQPGGSLRLSCAASGFTFTSFTMHWVRQAPGKGLEWVALISHDGSNKDYADSVRGRFTVSRDNSKKMVYLQMSSLRPDDAAVYYCARGGPAYYTYSDTLTGYHNVVGDYWGQGTLVTVSS
VL: ELTQSPGTLSLSPGERATLSCRASQVRGFLAWFQQKPGQAPRLLIYGASNRAPGIPDRFSGSGSGTDFTLTISRLEPEDFAVYYCQQYGDSPPITFGQGTRLEIKR
notes: Soluble Fab
Consider B9, for which, in experiment [2], the binding result was “binds”.

B10: Fab P1a (Fab, V domains shown)
VH: B9 VH
VL: ELTQSPGTLSLSPGERATLSCRTSQSVSSTYLAWYQQKPGQPPRLLIYGASNRAPGIPDRFSGSGSGTDFTLTISRLEPEDFAVYYCQQYGDSPPITFGQGTRLDIKR
Regarding B10, the binding result in experiment [2] was “binds”.

B11: Fab B6c (Fab, V domains shown)
VH: VQLLEQSGAEVKKPGSSVKVSCRASGSPYSSYTITWVRQAPGQGLEWMGGIILMTGKANYAQKFQGRVTITADRATATAYMEMSSLTSDDTAIYYCARDPYVYAGDDVWSLSRWGQGTPVTVSS
VL: not shown
Regarding B11, the binding result in [1] was “binds”.

B12: Fab T1 (Fab, V domains shown)
VH: EVQLLESGGGLVQPGGSLRLSCAASGFTFSRFWMHWVRQAPGKGLVWVARINSDGSSTTYADSVKGRFTISRDNAKNTLYLQMNSLRDEDTAVYFCARGGDSSSPYYYPMDVWGQGTTVAVSS
VL: not shown
On to B12, for which the binding result in experiment [2] is listed as “binds”.

B13: Fab S1 (Fab, V domains shown)
VH: VQLLEQSGAEVKKPGTSVKVSCTASGYIFTSFGISWVRQAPGQGLEWMGRIDTYNGKTNYAQKLQGRVTMTTDTYTSTAYMELRSLTSDDTAVYYCARDDCRSSTCYLAQHNWQAYYHDSWGQGTLVTVSS
VL: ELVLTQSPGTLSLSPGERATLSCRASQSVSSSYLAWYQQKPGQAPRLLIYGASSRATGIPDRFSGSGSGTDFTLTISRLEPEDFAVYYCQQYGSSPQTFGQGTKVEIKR
Turning to B13, the binding result in experiment [2] is reported as “binds”.

B14: Fab O1 (Fab, V domains shown)
VH: VQLLEQSGAEVKKAGESVRLSCKASGYRFGDYWIAWVRQLPGRAPEWMGIIYPDDSDTKYSPSFQGQVTISADKSIRTTFLDWGSLKASDTAIYYCARGCLGAKCYYPHYYYGLDVWGQGTTVIVSS
VL: ELTQSPSSLSASVGDRVTITCRATQGIDNYLNWYQQKPGKPPRLLIYGASSLQSGVPSRFSGGGSGTHFTLTITNLQPEDFATYYCQQSYSTPPETFGQGTKVEIKR
notes: Soluble Fab
Regarding B14, in [2], the binding result is “binds”.

B15: Fab N1 (Fab, V domains shown)
VH: VQLLEQSGPEVKKPGDSLRISCKMSGDSLVTTWIGWVRQKPGQGLEWMGIINPGDSSTNIYPGDSATRYGPSFQGQVTISIDKSTSTAYLQWNAVKPSDTGIYYCARHVPVPISGTFLWREREMHDFGYFDDWGQGTLVIVSS
VL: ELTQSPGTLSLSPGERATLSCRASQSVSSSYLAWYQQKPGQAPRLLIYGASNRAAGIPDRFSGSGSGADFTLTISRLEPEDFAVYYCQQYGSSLITFGQGTRLEIKR
notes: Soluble Fab
Regarding B15, in experiment [2], the binding result is “binds”.

B16: Fab J5 (Fab, V domains shown)
VH: VQLLEQSGAEVKKPGSSVTVSCKASGGTVSSYPITWVRQAPGQGLEWMGGTIPVFGAPKYAPKFQGRVTITADESTSTAYMELRSLRSDDTAMYYCAIVGMRGITLVGGLAMNWLDPWGQGTLVIVSS
VL: B5 VL with R28S, T73S, M84V, M94P, C95L, S96T, Q99G
Take B16: the binding result in experiment [1] is reported as “binds”.

B17: Fab N2 (Fab, V domains shown)
VH: B15 VH with A94T
VL: ELTQSPGTLSLFPGERATLSCRASQSILGRYLAWYQQKGGRAPRLLIFGASKRATGIPDRFSGSGSGTDFTLTIGRLEPEDFAVYYCQHYGSSITFGQGTRLDIKR
notes: Soluble Fab
As to B17, the binding result in experiment [2] was “binds”.

B18: Fab S2 (Fab, V domains shown)
VH: B13 VH with T16A
VL: B5 VL with G7A, R28S, N30R, Y31F, M84V, M94P, C95Q, S96T
In the case of B18, the binding result in [1] is “binds”.

B19: Fab U1 (Fab, V domains shown)
VH: VQLLEQSGPEVKRPGTSVKMSCKISGGASITQAMSWVRQAPGQGLEWMGGITPIFGTVNYAQKILGRVTITADEDTVSLELSSLKSEDTAVYYCAREVNLKTWNLAHPNVFDVWGQGTMLTVSS
VL: ELTQSPSSLSASVGDRVTITCRASQSISSFLNWYQQKPGKAPKLLIYAASSLQSGVPPRFSGSGSGTDFTLTISSLQPEDFATYYCQQSYSTPRTFGQGTKLEIKR
For B19, the binding result in [2] is recorded as “binds”.

B20: Fab U3 (Fab, V domains shown)
VH: VQLLEQSGAEVKRPGSSVKISCKNSGGTFITQAMSWVRQAPGQGLEWMGGIIPIFGTVNYAQKILGRVTITADEDTVSMELSSLGFEDTAVYYCAREVNLKSWNLAHPDVFDIWGQGTLVTVSS
VL: B19 VL with S28R, F30Y, K43N, A48S, S51N, P58S, S61R, S91R, L102V, I104S
With B20, the binding result in [1] was “binds”.
